Experimental data taken from US20130089566A1.

biological target: polypeptide B9-23 composed of the ninth to twenty-third amino acid residues of the amino terminal on B chain of human insulin (human)

Row | T cell proliferation (CFSE staining, flow cytometry) | Substance
1 | 0.08% | spleen T cells of Balb/c mice of the pcDB9-23 and B9-23 coimmune group (cells without a defined receptor)
2 | 8.94% | spleen T cells of Balb/c mice of the B9-23 immune group (cells without a defined receptor)
3 | 22.3% | spleen T cells of Balb/c mice of the pcDB9-23 immune group (cells without a defined receptor)
